Assays:
[1] = Photo-isomerization kinetics (trans/cis) followed by absorbance under illumination; assay type: physicochemical; conditions: 9.5 mW cm−2, 100% DMSO
Description: Next, we evaluated for all monomers and dimers the trans‐cis isomerization reactions under various wavelengths of illumination. Illuminating the ChTx‐Ah^14‐Az1 monomer at λ = 365 nm at 9.5 mW cm^−2, to favor the cis configuration, yielded a significant time‐dependent change in the absorbance properties of the peptide, characterized by a decrease of the absorbance band maximum centered at 340 nm (Figure 4a).

[2] = Thermal stability of the cis isomer in the dark; conditions: Figure S3
[3] = target: mouse Kv1.2 channel (mouse) (UniProt P63141)
[4] = target: mouse Kv1.2 channel (mouse) (UniProt P63141); remark: listed apart in the source

Sequence of mouse Kv1.2 channel (mouse) (P63141 whole entry): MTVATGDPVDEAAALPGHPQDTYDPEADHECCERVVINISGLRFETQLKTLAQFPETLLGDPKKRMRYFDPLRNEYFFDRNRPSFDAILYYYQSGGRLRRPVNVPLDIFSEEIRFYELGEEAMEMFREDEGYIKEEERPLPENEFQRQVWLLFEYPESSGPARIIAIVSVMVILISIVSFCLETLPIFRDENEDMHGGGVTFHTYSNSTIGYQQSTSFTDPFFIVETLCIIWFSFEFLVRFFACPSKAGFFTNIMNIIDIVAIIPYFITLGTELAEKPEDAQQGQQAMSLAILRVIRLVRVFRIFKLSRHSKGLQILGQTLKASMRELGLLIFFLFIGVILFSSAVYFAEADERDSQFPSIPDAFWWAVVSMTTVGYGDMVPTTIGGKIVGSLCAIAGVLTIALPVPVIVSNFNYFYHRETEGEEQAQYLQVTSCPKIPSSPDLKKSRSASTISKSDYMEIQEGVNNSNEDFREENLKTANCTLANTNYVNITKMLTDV
Sequence of charybdotoxin (P13487 23-59): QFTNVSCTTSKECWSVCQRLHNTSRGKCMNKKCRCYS
Sequence of ChTx‐Ah^9 (P13487 whole entry, looked up): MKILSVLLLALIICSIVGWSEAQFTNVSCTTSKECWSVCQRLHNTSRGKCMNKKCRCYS
Sequence of ChTx‐Ah^12 (P13487 whole entry, looked up): as above

Row | Compound | IC50 of inhibition of K+ current, L929 cells stably overexpressing mouse Kv1.2, automated patch-clamp [3] [nM] | percent block of Kv1.2 current at 10 nM peptide, patch-clamp [4] [%] | further results
1 | C#CCNC(=O)c1ccc(/N=N/c2ccc(C(=O)NCC#C)cc2)cc1 [Az1, (E)‐4,4′‐(diazene‐1,2‐diyl)bis(N‐(prop‐2‐yn‐1‐yl)benzamide)] | – | – | Time at which formation of the cis isomer saturates ([1]; irradiation at 340 nm): 300 s; Time for recovery of trans-enriched compound on reverse-switching ([1]; irradiation at 435 nm): ≈ 60 s; Thermal stability of the cis isomer [2]: remarkably stable
2 | ChTx‐Ah^9 (from UniProt P13487 23-59) (peptide) | 6.3 | – | –
3 | ChTx‐Ah^12 (from UniProt P13487 23-59) (peptide) | 1.2 | – | –
4 | ChTx‐Ah^14 (from UniProt P13487 23-59) (peptide) | 9.8 | 52 | –
5 | ChTx‐Ah^19 (from UniProt P13487 23-59) (peptide) | 11.5 | – | –
6 | charybdotoxin (from UniProt P13487 23-59) (peptide) | 5 | 62.2 | –

Source: publication PMC12051786, “Photoisomerization of Azobenzene‐Extended Charybdotoxin for the Optical Control of Kv1.2 Potassium Channel Activity” (Angewandte Chemie (International Ed. in English), 2025)
